Source: patent publication US20170101664

Molecular target: biosensor SEQ ID NO:47 (KbiotinkkafpaayiaeG-photo-cleavable linker-…rrrqrrkkr)

B1: Lyn kinase (protein)
chain: MGCIKSKGKDSLSDDGVDLKTQPVRNTERTIYVRDPTSNKQQRPVPESQLLPGQRFQTKDPEEQGDIVVALYPYDGIHPDDLSFKKGEKMKVLEEHGEWWKAKSLLTKKEGFIPSNYVAKLNTLETEEWFFKDITRKDAERQLLAPGNSAGAFLIRESETLKGSFSLSVRDFDPVHGDVIKHYKIRSLDNGGYYISPRITFPCISDMIKHYQKQADGLCRRLEKACISPKPQKPWDKDAWEIPRESIKLVKRLGAGQFGEVWMGYYNNSTKVAVKTLKPGTMSVQAFLEEANLMKTLQHDKLVRLYAVVTREEPIYIITEYMAKGSLLDFLKSDEGGKVLLPKLIDFSAQIAEGMAYIERKNYIHRDLRAANVLVSESLMCKIADFGLARVIEDNEYTAREGAKFPIKWTAPEAINFGCFTIKSDVWSFGILLYEIVTYGKIPYPGRTNADVMTALSQGYRMPRVENCPDELYDIMKMCWKEKAEERPTFDYLQSVLDDFYTATEGQYQQQP
With B1 the “phosphorylation in the in vitro kinase assay” value was “Lyn kinase did not phosphorylate the biosensor”.
